T1: human FcγRIIb (human, UniProt P31994 43-217, limits assumed)
T1 construct: also called FcgRIIb
T1 sequence: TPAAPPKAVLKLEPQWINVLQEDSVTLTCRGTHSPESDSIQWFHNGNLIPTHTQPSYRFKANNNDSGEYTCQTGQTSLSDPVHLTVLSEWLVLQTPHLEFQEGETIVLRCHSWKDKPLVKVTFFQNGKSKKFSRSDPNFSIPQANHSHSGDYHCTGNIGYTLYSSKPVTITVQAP

T2: human FcγRIIa(R) (human, UniProt P12318 36-217)
T2 construct: also called FcgRIIaR; FcγRIIa type R
T2 chain: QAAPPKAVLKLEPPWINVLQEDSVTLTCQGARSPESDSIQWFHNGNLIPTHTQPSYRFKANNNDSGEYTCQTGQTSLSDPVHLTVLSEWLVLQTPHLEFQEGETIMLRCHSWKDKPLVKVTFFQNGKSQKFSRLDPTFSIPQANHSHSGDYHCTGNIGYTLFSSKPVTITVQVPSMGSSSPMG

T3: human FcγRIIa(H) (human, UniProt P12318 36-217)
T3 construct: also called FcgRIIaH; FcγRIIa type H
T3 sequence: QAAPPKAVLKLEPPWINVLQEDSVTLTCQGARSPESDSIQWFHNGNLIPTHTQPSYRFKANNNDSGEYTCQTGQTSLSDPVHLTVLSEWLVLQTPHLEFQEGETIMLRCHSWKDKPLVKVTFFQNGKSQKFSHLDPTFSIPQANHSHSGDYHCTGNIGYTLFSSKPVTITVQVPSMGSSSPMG


Legend:
Test in all cases: SPR (Biacore);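 further: antibody variants captured on sensor chip, Fcγ receptor flowed over at 25 °C, bound receptor normalized to amount of captured antibody, expressed relative to reference antibody set as 100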
[1] = target: T1, human FcγRIIb
[2] = target: T4, human FcγRIa (human, UniProt P12314 16-292, limits assumed)
T4 construct: also called FcgRIa; FcγRI (CD64)

[3] = target: T5, human FcγRIIIa(F) (human, UniProt P08637 17-208, limits assumed)
T5 construct: also called FcgRIIIaF; allotype F158

[4] = target: T2, human FcγRIIa(R)
[5] = target: T3, human FcγRIIa(H)

T5 sequence (P08637 other isoform, or with tags, fused parts or gaps limits assumed): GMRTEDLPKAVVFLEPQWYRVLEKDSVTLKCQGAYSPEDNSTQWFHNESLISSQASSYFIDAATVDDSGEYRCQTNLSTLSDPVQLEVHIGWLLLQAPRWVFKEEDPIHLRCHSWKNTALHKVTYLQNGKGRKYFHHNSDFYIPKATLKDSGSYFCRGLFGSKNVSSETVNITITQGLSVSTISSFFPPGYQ
T4 sequence (P12314 16-292 limits assumed): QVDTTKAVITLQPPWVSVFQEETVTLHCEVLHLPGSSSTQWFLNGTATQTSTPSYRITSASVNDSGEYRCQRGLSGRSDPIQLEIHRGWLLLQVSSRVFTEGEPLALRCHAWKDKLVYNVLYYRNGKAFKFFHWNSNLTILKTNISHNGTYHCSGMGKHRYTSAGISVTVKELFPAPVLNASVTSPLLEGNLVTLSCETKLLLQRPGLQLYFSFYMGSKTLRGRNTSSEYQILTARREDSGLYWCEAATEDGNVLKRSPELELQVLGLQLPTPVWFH

relative binding activity [1]	relative binding activity [2]	relative binding activity [3]	relative binding activity [4]	relative binding activity [5]	Binder
75 % of GpH7-B3/GpL16-k0	42 % of GpH7-B3/GpL16-k0	8 % of GpH7-B3/GpL16-k0	54 % of GpH7-B3/GpL16-k0	81 % of GpH7-B3/GpL16-k0	GpH7-B3 variant G236N/GpL16-k0 (antibody, human IgG1, copies: 2 + 2) heavy: not shown light: DIVMTQSPLSLPVTPGEPASISCQASESLVHSNRNTYLHWYLQKPGQSPQLLIYKVSNRFSGVPDRFSGSGSGTDFTLKISRVEAEDVGVYYCSQNTHVPPTFGQGTKVEIE
18 % of GpH7-B3/GpL16-k0	18 % of GpH7-B3/GpL16-k0	0 % of GpH7-B3/GpL16-k0	23 % of GpH7-B3/GpL16-k0	1 % of GpH7-B3/GpL16-k0	GpH7-B3 variant G237E/GpL16-k0 (antibody, human IgG1, copies: 2 + 2) heavy: not shown light: DIVMTQSPLSLPVTPGEPASISCQASESLVHSNRNTYLHWYLQKPGQSPQLLIYKVSNRFSGVPDRFSGSGSGTDFTLKISRVEAEDVGVYYCSQNTHVPPTFGQGTKVEIE
62 % of GpH7-B3/GpL16-k0	82 % of GpH7-B3/GpL16-k0	63 % of GpH7-B3/GpL16-k0	48 % of GpH7-B3/GpL16-k0	21 % of GpH7-B3/GpL16-k0	GpH7-B3 variant L234E/GpL16-k0 (antibody, human IgG1, copies: 2 + 2) heavy: not shown light: DIVMTQSPLSLPVTPGEPASISCQASESLVHSNRNTYLHWYLQKPGQSPQLLIYKVSNRFSGVPDRFSGSGSGTDFTLKISRVEAEDVGVYYCSQNTHVPPTFGQGTKVEIE
51 % of GpH7-B3/GpL16-k0	7 % of GpH7-B3/GpL16-k0	0 % of GpH7-B3/GpL16-k0	58 % of GpH7-B3/GpL16-k0	1 % of GpH7-B3/GpL16-k0	GpH7-B3 variant G237L/GpL16-k0 (antibody, human IgG1, copies: 2 + 2) heavy: not shown light: DIVMTQSPLSLPVTPGEPASISCQASESLVHSNRNTYLHWYLQKPGQSPQLLIYKVSNRFSGVPDRFSGSGSGTDFTLKISRVEAEDVGVYYCSQNTHVPPTFGQGTKVEIE
11 % of GpH7-B3/GpL16-k0	12 % of GpH7-B3/GpL16-k0	0 % of GpH7-B3/GpL16-k0	14 % of GpH7-B3/GpL16-k0	1 % of GpH7-B3/GpL16-k0	GpH7-B3 variant G237H/GpL16-k0 (antibody, human IgG1, copies: 2 + 2) heavy: not shown light: DIVMTQSPLSLPVTPGEPASISCQASESLVHSNRNTYLHWYLQKPGQSPQLLIYKVSNRFSGVPDRFSGSGSGTDFTLKISRVEAEDVGVYYCSQNTHVPPTFGQGTKVEIE
-1 % of GpH7-B3/GpL16-k0	3 % of GpH7-B3/GpL16-k0	0 % of GpH7-B3/GpL16-k0	0 % of GpH7-B3/GpL16-k0	-1 % of GpH7-B3/GpL16-k0	GpH7-B3 variant G237R/GpL16-k0 (antibody, human IgG1, copies: 2 + 2) heavy: not shown light: DIVMTQSPLSLPVTPGEPASISCQASESLVHSNRNTYLHWYLQKPGQSPQLLIYKVSNRFSGVPDRFSGSGSGTDFTLKISRVEAEDVGVYYCSQNTHVPPTFGQGTKVEIE
12 % of GpH7-B3/GpL16-k0	8 % of GpH7-B3/GpL16-k0	2 % of GpH7-B3/GpL16-k0	55 % of GpH7-B3/GpL16-k0	10 % of GpH7-B3/GpL16-k0	GpH7-B3 variant G237V/GpL16-k0 (antibody, human IgG1, copies: 2 + 2) heavy: not shown light: DIVMTQSPLSLPVTPGEPASISCQASESLVHSNRNTYLHWYLQKPGQSPQLLIYKVSNRFSGVPDRFSGSGSGTDFTLKISRVEAEDVGVYYCSQNTHVPPTFGQGTKVEIE
29 % of GpH7-B3/GpL16-k0	6 % of GpH7-B3/GpL16-k0	2 % of GpH7-B3/GpL16-k0	69 % of GpH7-B3/GpL16-k0	6 % of GpH7-B3/GpL16-k0	GpH7-B3 variant G237I/GpL16-k0 (antibody, human IgG1, copies: 2 + 2) heavy: not shown light: DIVMTQSPLSLPVTPGEPASISCQASESLVHSNRNTYLHWYLQKPGQSPQLLIYKVSNRFSGVPDRFSGSGSGTDFTLKISRVEAEDVGVYYCSQNTHVPPTFGQGTKVEIE
19 % of GpH7-B3/GpL16-k0	45 % of GpH7-B3/GpL16-k0	8 % of GpH7-B3/GpL16-k0	38 % of GpH7-B3/GpL16-k0	80 % of GpH7-B3/GpL16-k0	GpH7-B3 variant G236Q/GpL16-k0 (antibody, human IgG1, copies: 2 + 2) heavy: not shown light: DIVMTQSPLSLPVTPGEPASISCQASESLVHSNRNTYLHWYLQKPGQSPQLLIYKVSNRFSGVPDRFSGSGSGTDFTLKISRVEAEDVGVYYCSQNTHVPPTFGQGTKVEIE
68 % of GpH7-B3/GpL16-k0	96 % of GpH7-B3/GpL16-k0	49 % of GpH7-B3/GpL16-k0	52 % of GpH7-B3/GpL16-k0	62 % of GpH7-B3/GpL16-k0	GpH7-B3 variant L234F/GpL16-k0 (antibody, human IgG1, copies: 2 + 2) heavy: not shown light: DIVMTQSPLSLPVTPGEPASISCQASESLVHSNRNTYLHWYLQKPGQSPQLLIYKVSNRFSGVPDRFSGSGSGTDFTLKISRVEAEDVGVYYCSQNTHVPPTFGQGTKVEIE

Reference: US20200199241A1 (Chugai, published 2020)
